Molecular target: IFNγR-IL2/IL15R signal converter
Assay: cell-based or functional assay

IFNγR-IL2/IL15R signal converter, sequence (chain, as listed by the source limits assumed, chain 1 of 2): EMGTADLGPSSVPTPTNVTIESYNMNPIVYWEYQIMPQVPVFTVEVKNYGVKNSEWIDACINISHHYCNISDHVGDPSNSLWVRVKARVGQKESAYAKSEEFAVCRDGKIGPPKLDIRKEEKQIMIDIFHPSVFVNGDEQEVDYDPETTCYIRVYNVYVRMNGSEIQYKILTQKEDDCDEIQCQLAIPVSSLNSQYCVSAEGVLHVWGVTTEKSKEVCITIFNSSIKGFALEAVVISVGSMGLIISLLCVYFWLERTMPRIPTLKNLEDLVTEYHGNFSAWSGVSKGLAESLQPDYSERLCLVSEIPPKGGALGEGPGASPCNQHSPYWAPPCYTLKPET
IFNγR-IL2/IL15R signal converter, sequence (chain, as listed by the source limits assumed, chain 2 of 2): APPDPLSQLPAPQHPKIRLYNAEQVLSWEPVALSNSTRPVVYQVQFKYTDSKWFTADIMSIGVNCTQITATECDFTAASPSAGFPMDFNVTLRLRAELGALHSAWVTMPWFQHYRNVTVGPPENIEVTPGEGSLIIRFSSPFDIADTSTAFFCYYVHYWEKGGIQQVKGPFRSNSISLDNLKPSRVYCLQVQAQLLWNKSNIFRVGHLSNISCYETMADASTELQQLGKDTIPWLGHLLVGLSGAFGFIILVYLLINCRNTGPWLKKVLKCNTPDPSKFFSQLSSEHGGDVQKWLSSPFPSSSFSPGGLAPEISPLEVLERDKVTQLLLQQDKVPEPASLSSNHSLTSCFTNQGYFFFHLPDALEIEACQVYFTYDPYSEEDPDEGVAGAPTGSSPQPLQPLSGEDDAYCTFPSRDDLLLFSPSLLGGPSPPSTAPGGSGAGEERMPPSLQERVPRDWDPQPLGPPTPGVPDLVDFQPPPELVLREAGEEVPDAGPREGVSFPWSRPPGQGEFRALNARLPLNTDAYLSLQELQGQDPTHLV

cell proliferation (Tag-it violet cell tracking staining), 6 days under IFN-γ treatment: 40%
percentage of proliferation (flow cytometry, Tag-it Violet), 6 days, 5 ng/mL IFN-γ: 42.3%
Substance: IFN-γ (from UniProt P01579 24-166) (ligand)
